Experiment [1] addresses recombinant angiotensin-converting enzyme 2 (ACE2) (UniProt Q9BYF1). Put plainly: electrochemical impedance spectroscopy.
The target is the same in experiment [2]. Put plainly: electrochemical impedance spectroscopy. The source holds these as a separate data set.

Like-named read-outs stand apart in the source and are kept apart here.

recombinant angiotensin-converting enzyme 2 (ACE2), sequence (Q9BYF1 18-740): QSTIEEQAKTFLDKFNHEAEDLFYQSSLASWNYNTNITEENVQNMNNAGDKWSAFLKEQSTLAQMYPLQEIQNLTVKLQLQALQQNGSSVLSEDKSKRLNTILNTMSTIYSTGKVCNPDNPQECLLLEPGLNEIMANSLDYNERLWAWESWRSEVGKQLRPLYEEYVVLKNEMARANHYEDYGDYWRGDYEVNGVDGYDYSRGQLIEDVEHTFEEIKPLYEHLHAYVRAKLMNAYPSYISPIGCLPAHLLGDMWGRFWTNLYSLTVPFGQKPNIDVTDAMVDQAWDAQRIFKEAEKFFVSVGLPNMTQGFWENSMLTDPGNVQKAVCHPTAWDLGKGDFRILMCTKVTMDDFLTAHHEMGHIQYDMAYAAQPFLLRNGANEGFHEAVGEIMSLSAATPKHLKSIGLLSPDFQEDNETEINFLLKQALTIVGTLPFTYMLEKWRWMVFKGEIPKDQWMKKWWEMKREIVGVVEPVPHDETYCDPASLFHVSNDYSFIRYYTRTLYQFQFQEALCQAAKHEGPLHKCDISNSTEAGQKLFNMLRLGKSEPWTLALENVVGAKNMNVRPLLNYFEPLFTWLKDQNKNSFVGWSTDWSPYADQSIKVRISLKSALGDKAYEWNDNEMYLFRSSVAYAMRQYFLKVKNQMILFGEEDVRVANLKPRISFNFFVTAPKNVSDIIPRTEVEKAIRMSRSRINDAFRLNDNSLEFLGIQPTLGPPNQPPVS

On to “recombinant SARS-CoV-2 S-protein receptor-binding domain (from UniProt P0DTC2) (domain or fragment; other documents disagree on this pair)”, for which the figures for the EC50 in experiment [1] and in experiment [2] were 1.74 µM and 5.1 µM, respectively.

The values above are taken from article PMC8018905.
